Experimental data reported in patent US20230140293A1.

How the values were obtained:
Experiment in all cases: cell-based or functional assay
[1] = molecular target: CH0505TF Env, Env-pseudotyped virus produced in 293T cells (HIV-1)
[2] = molecular target: HIV-1 426c.TM (N276D/N460D/N463D) Env on Env-pseudotyped virus produced in 293T cells (HIV-1)
[3] = molecular target: HIV-1 Env 426c.TM4 (S278R.G471S.N460D.N463D), Env-pseudotyped virus produced in 293S GnTI- cells (Man5-enriched) (HIV-1 clade C strain 426c)
[4] = molecular target: HIV-1 Env 426c.TM (N276D.N460D.N463D), Env-pseudotyped virus produced in 293T cells (HIV-1 clade C strain 426c)
[5] = molecular target: HIV-1 clade C strain 426c Env on Env-pseudotyped virus produced in 293s/GnTI-/- cells (Man5-enrichment) (HIV-1)
[6] = molecular target: CH0505TF.G458Y Env, Env-pseudotyped virus produced in 293S GnTI- cells (Man5-enriched) (HIV-1)
[7] = molecular target: HIV-1 Env 426c.TM (N276D.N460D.N463D), Env-pseudotyped virus produced in 293S GnTI- cells (Man5-enriched) (HIV-1 clade C strain 426c)
[8] = molecular target: HIV-1 Env 426c, Env-pseudotyped virus produced in 293T cells (HIV-1 clade C strain 426c)
[9] = molecular target: HIV-1 426c.TM (N276D/N460D/N463D) Env on Env-pseudotyped virus produced in 293s/GnTI-/- cells (Man5-enrichment) (HIV-1)
[10] = molecular target: HIV-1 Env 426c.TM4 (S278R.G471S.N460D.N463D), Env-pseudotyped virus produced in 293T cells (HIV-1 clade C strain 426c)
[11] = molecular target: HIV-1 Env 426c, Env-pseudotyped virus produced in 293S GnTI- cells (Man5-enriched) (HIV-1 clade C strain 426c)
[12] = molecular target: CH0505TF Env, Env-pseudotyped virus produced in 293S GnTI- cells (Man5-enriched) (HIV-1)
[13] = molecular target: CH0505TF.G458Y Env, Env-pseudotyped virus produced in 293T cells (HIV-1)
[14] = molecular target: HIV-1 Env 426c.SM (N276D), Env-pseudotyped virus produced in 293S GnTI- cells (Man5-enriched) (HIV-1 clade C strain 426c)
[15] = molecular target: HIV-1 426c.DM (N460D/N463D) Env on Env-pseudotyped virus produced in 293T cells (HIV-1)
[16] = molecular target: HIV-1 clade C strain 426c Env on Env-pseudotyped virus produced in 293T cells (HIV-1)
[17] = molecular target: HIV-1 Env 426c.DM (N460D.N463D), Env-pseudotyped virus produced in 293S GnTI- cells (Man5-enriched) (HIV-1 clade C strain 426c)
[18] = molecular target: CH0505TF.gly3.276 Env, Env-pseudotyped virus produced in 293T cells (HIV-1)
[19] = molecular target: CH0505TF.gly3.276 Env, Env-pseudotyped virus produced in 293S GnTI- cells (Man5-enriched) (HIV-1)
[20] = molecular target: HIV-1 426c.DM (N460D/N463D) Env on Env-pseudotyped virus produced in 293s/GnTI-/- cells (Man5-enrichment) (HIV-1)
[21] = molecular target: HIV-1 Env 426c.SM (N276D), Env-pseudotyped virus produced in 293T cells (HIV-1 clade C strain 426c)
[22] = molecular target: CH0505TF.gly4 Env, Env-pseudotyped virus produced in 293T cells (HIV-1)
[23] = molecular target: CH0505TF.gly3.461 Env, Env-pseudotyped virus produced in 293S GnTI- cells (Man5-enriched) (HIV-1)
[24] = molecular target: CH0505TF.gly4 Env, Env-pseudotyped virus produced in 293S GnTI- cells (Man5-enriched) (HIV-1)
[25] = molecular target: HIV-1 426c.SM (N276D) Env on Env-pseudotyped virus produced in 293T cells (HIV-1)
[26] = molecular target: CH0505TF.gly3.197 Env, Env-pseudotyped virus produced in 293S GnTI- cells (Man5-enriched) (HIV-1)
[27] = molecular target: HIV-1 426c.SM (N276D) Env on Env-pseudotyped virus produced in 293s/GnTI-/- cells (Man5-enrichment) (HIV-1)
[28] = molecular target: CH0505TF.gly3.461 Env, Env-pseudotyped virus produced in 293T cells (HIV-1)
[29] = molecular target: CH0505.w4.3 Env, Env-pseudotyped virus produced in 293T cells (HIV-1)
[30] = molecular target: HIV-1 Env 426c.DM (N460D.N463D), Env-pseudotyped virus produced in 293T cells (HIV-1 clade C strain 426c)
[31] = molecular target: CH0505TF.gly3.197 Env, Env-pseudotyped virus produced in 293T cells (HIV-1)

Substance	IC50 (µg/ml) in TZM-bl [1]	ID50/IC50 in TZM-bl [2]	IC50 (µg/ml) in TZM-bl [3]	IC50 (µg/ml) in TZM-bl [4]	ID50/IC50 in TZM-bl [5]	IC50 (µg/ml) in TZM-bl [6]	IC50 (µg/ml) in TZM-bl [7]	IC50 (µg/ml) in TZM-bl [8]	ID50/IC50 in TZM-bl [9]	IC50 (µg/ml) in TZM-bl [10]	IC50 (µg/ml) in TZM-bl [11]	IC50 (µg/ml) in TZM-bl [12]	IC50 (µg/ml) in TZM-bl [13]	IC50 (µg/ml) in TZM-bl [14]	ID50/IC50 in TZM-bl [15]	ID50/IC50 in TZM-bl [16]	IC50 (µg/ml) in TZM-bl [17]	IC50 (µg/ml) in TZM-bl [18]	IC50 (µg/ml) in TZM-bl [19]	ID50/IC50 in TZM-bl [20]	further results
PGT128 (antibody)	> 5 µg/mL	> 5 µg/mL	> 5 µg/mL	> 5 µg/mL	4.3 µg/mL	> 5 µg/mL	> 5 µg/mL	> 5 µg/mL	> 5 µg/mL	> 5 µg/mL	4.3 µg/mL	> 5 µg/mL	> 5 µg/mL	> 5 µg/mL	> 5 µg/mL	> 5 µg/mL	> 5 µg/mL	> 5 µg/mL	> 5 µg/mL	> 5 µg/mL	IC50 (µg/ml) in TZM-bl [21]: > 5 µg/mL; IC50 (µg/ml) in TZM-bl [22]: > 5 µg/mL; IC50 (µg/ml) in TZM-bl [23]: > 5 µg/mL; IC50 (µg/ml) in TZM-bl [24]: > 5 µg/mL; ID50/IC50 in TZM-bl [25]: > 5 µg/mL; IC50 (µg/ml) in TZM-bl [26]: > 5 µg/mL; ID50/IC50 in TZM-bl [27]: > 5 µg/mL; IC50 (µg/ml) in TZM-bl [28]: > 5 µg/mL; IC50 (µg/ml) in TZM-bl [29]: > 10 µg/mL; IC50 (µg/ml) in TZM-bl [30]: > 5 µg/mL; IC50 (µg/ml) in TZM-bl [31]: > 5 µg/mL
PGT121 (antibody)	> 5 µg/mL	> 5 µg/mL	> 5 µg/mL	> 5 µg/mL	2.5 µg/mL	> 5 µg/mL	3.4 µg/mL	> 5 µg/mL	3.4 µg/mL	> 5 µg/mL	2.5 µg/mL	> 5 µg/mL	> 5 µg/mL	4.2 µg/mL	> 5 µg/mL	> 5 µg/mL	3.4 µg/mL	> 5 µg/mL	> 5 µg/mL	3.4 µg/mL	IC50 (µg/ml) in TZM-bl [21]: > 5 µg/mL; IC50 (µg/ml) in TZM-bl [22]: > 5 µg/mL; IC50 (µg/ml) in TZM-bl [23]: > 5 µg/mL; IC50 (µg/ml) in TZM-bl [24]: > 5 µg/mL; ID50/IC50 in TZM-bl [25]: > 5 µg/mL; IC50 (µg/ml) in TZM-bl [26]: > 5 µg/mL; ID50/IC50 in TZM-bl [27]: 4.2 µg/mL; IC50 (µg/ml) in TZM-bl [28]: > 5 µg/mL; IC50 (µg/ml) in TZM-bl [29]: > 20 µg/mL; IC50 (µg/ml) in TZM-bl [30]: > 5 µg/mL; IC50 (µg/ml) in TZM-bl [31]: > 5 µg/mL
